B1: FEM1A (parent)
chain: NIVEYLIQEQPGQEQVAGGEAQPG
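Also: lentivirally expressed fusions sorted by FACS into six bins by GFP to DsRed ratio, PSI derived from sequencing read proportions per bin multiplied by bin number.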

The variants in this series derive from B1. Description: protein stability index of a GFP-peptide fusion (GPS, HEK-293T) (PSI 1-6); higher = more stable. The settings on record: c terminus: a fixed tail appended.
For the variant NIVEYLIQEQPGVEQVAGGEAQPG [Q13V], the protein stability index came to 4.06.
Then NIVEYLIQEQPGREQVAGGEAQPG [Q13R], with 3.79; and NIVEYLIQEQPGNEQVAGGEAQPG [Q13N], with 4.42; and NIVEYLIQEQPGTEQVAGGEAQPG [Q13T], with 3.94.
The result for NIVEYLIQEQPGFEQVAGGEAQPG [Q13F] reads 3.78.
On to NIVEYLIQEQPGHEQVAGGEAQPG [Q13H], for which the protein stability index was 4.04.
On to NIVEYLIQEQPGMEQVAGGEAQPG [Q13M], for which the protein stability index turned out to be 3.86.
Then NIVEYLIQEQPGSEQVAGGEAQPG [Q13S], with 3.85.
Regarding NIVEYLIQEQPGYEQVAGGEAQPG [Q13Y], the protein stability index stood at 3.72.
The result for NIVEYLIQEQPGWEQVAGGEAQPG [Q13W] reads 3.18; that for NIVEYLIQEQPGPEQVAGGEAQPG [Q13P], 4.26; that for NIVEYLIQEQPGDEQVAGGEAQPG [Q13D], 4.11.
The result for NIVEYLIQEQPGKEQVAGGEAQPG [Q13K] reads 4.48; that for NIVEYLIQEQPGAEQVAGGEAQPG [Q13A], 4.02; that for NIVEYLIQEQPGIEQVAGGEAQPG [Q13I], 3.35.
Turning to NIVEYLIQEQPGGEQVAGGEAQPG [Q13G], the protein stability index was determined as 4.18.
Then NIVEYLIQEQPGEEQVAGGEAQPG [Q13E], with 4.79.
In the case of NIVEYLIQEQPGLEQVAGGEAQPG [Q13L], the protein stability index came out at 3.27.
Regarding NIVEYLIQEQPGQQQVAGGEAQPG [E14Q], the protein stability index was found to be 3.33.
The result for NIVEYLIQEQPGQIQVAGGEAQPG [E14I] reads 3.25.
The result for NIVEYLIQEQPGQFQVAGGEAQPG [E14F] reads 2.62; that for NIVEYLIQEQPGQMQVAGGEAQPG [E14M], 3.34; that for NIVEYLIQEQPGQDQVAGGEAQPG [E14D], 4.39.
As for NIVEYLIQEQPGQHQVAGGEAQPG [E14H], the protein stability index stood at 3.48.
Turning to NIVEYLIQEQPGQSQVAGGEAQPG [E14S], the protein stability index turned out to be 3.21.
Then NIVEYLIQEQPGQNQVAGGEAQPG [E14N], with 3.54.
The result for NIVEYLIQEQPGQTQVAGGEAQPG [E14T] reads 4.21.
Regarding NIVEYLIQEQPGQCQVAGGEAQPG [E14C], the protein stability index amounted to 3.38.
In the case of NIVEYLIQEQPGQVQVAGGEAQPG [E14V], the protein stability index is 2.61.
Then NIVEYLIQEQPGQAQVAGGEAQPG [E14A], with 4.06; and NIVEYLIQEQPGQGQVAGGEAQPG [E14G], with 3.84.
Turning to NIVEYLIQEQPGQPQVAGGEAQPG [E14P], the protein stability index amounted to 3.73.
Then NIVEYLIQEQPGQLQVAGGEAQPG [E14L], with 3.06; and NIVEYLIQEQPGQRQVAGGEAQPG [E14R], with 3.37; and NIVEYLIQEQPGQKQVAGGEAQPG [E14K], with 3.85.
Turning to NIVEYLIQEQPGQWQVAGGEAQPG [E14W], the protein stability index amounted to 2.25.
Then NIVEYLIQEQPGQYQVAGGEAQPG [E14Y], with 2.69.
Then NIVEYLIQEQPVQEQVAGGEAQPG [G12V], with 3.95; and NIVEYLIQEQPWQEQVAGGEAQPG [G12W], with 2.89; and NIVEYLIQEQPSQEQVAGGEAQPG [G12S], with 4.65.
As to NIVEYLIQEQPRQEQVAGGEAQPG [G12R], the protein stability index worked out at 2.94.
On to NIVEYLIQEQPTQEQVAGGEAQPG [G12T], for which the protein stability index stood at 3.87.
The result for NIVEYLIQEQPQQEQVAGGEAQPG [G12Q] reads 4.61.
Then NIVEYLIQEQPYQEQVAGGEAQPG [G12Y], with 3.12; and NIVEYLIQEQPPQEQVAGGEAQPG [G12P], with 4.87.
Then NIVEYLIQEQPGQEYVAGGEAQPG [Q15Y], with 3.67; and NIVEYLIQEQPGQELVAGGEAQPG [Q15L], with 3.53.
For NIVEYLIQEQPGQEGVAGGEAQPG [Q15G], the protein stability index was determined as 4.78.
Then NIVEYLIQEQPGQECVAGGEAQPG [Q15C], with 4.19.
The result for NIVEYLIQEQPGQEFVAGGEAQPG [Q15F] reads 3.24; that for NIVEYLIQEQPGQEMVAGGEAQPG [Q15M], 3.78; that for NIVEYLIQEQPGQEPVAGGEAQPG [Q15P], 4.32.
The result for NIVEYLIQEQPGQERVAGGEAQPG [Q15R] reads 3.78.
In the case of NIVEYLIQEQPGQESVAGGEAQPG [Q15S], the protein stability index turned out to be 4.52.
Then NIVEYLIQEQPGQETVAGGEAQPG [Q15T], with 3.17.
Then NIVEYLIQEQPGQEAVAGGEAQPG [Q15A], with 4.2; and NIVEYLIQEQPGQEHVAGGEAQPG [Q15H], with 4.02; and NIVEYLIQEQPGQEWVAGGEAQPG [Q15W], with 3.22.
The result for NIVEYLIQEQPGQEVVAGGEAQPG [Q15V] reads 3.66; that for NIVEYLIQEQPGQEEVAGGEAQPG [Q15E], 4.79.
Consider NIVEYLIQEQPGQEKVAGGEAQPG [Q15K], for which the protein stability index stood at 3.91.
Then NIVEYLIQEQPGQEDVAGGEAQPG [Q15D], with 4.08.
Regarding NIVEYLIQEQPGQENVAGGEAQPG [Q15N], the protein stability index was 4.56.
Then NIVEYLIQEQPGQEIVAGGEAQPG [Q15I], with 4.08.
The result for NIVEYLIQEQPGQEQKAGGEAQPG [V16K] reads 4.29; that for NIVEYLIQEQPGQEQAAGGEAQPG [V16A], 4.52; that for NIVEYLIQEQPGQEQGAGGEAQPG [V16G], 4.6.
The result for NIVEYLIQEQPGQEQMAGGEAQPG [V16M] reads 4.68; that for NIVEYLIQEQPGQEQWAGGEAQPG [V16W], 3.81.
Regarding NIVEYLIQEQPGQEQSAGGEAQPG [V16S], the protein stability index was found to be 3.86.
The result for NIVEYLIQEQPGQEQTAGGEAQPG [V16T] reads 4.42; that for NIVEYLIQEQPGQEQRAGGEAQPG [V16R], 4.2; that for NIVEYLIQEQPGQEQLAGGEAQPG [V16L], 3.94.
The result for NIVEYLIQEQPGQEQDAGGEAQPG [V16D] reads 4.16; that for NIVEYLIQEQPGQEQNAGGEAQPG [V16N], 3.87; that for NIVEYLIQEQPGQEQIAGGEAQPG [V16I], 3.86.
For NIVEYLIQEQPGQEQHAGGEAQPG [V16H], the protein stability index turned out to be 4.36.
The result for NIVEYLIQEQPGQEQPAGGEAQPG [V16P] reads 4.29; that for NIVEYLIQEQPGQEQQAGGEAQPG [V16Q], 4.3.
Then NIVEYLIQEQPGQEQCAGGEAQPG [V16C], with 4.02; and NIVEYLIQEQPGQEQEAGGEAQPG [V16E], with 4.35.
The result for NIVEYLIQEQPGQEQFAGGEAQPG [V16F] reads 3.03; that for NIVEYLIQEQPGQEQYAGGEAQPG [V16Y], 4.05.
In the case of NIVEYLIQEQPGQEQVMGGEAQPG [A17M], the protein stability index was 3.96.
The result for NIVEYLIQEQPGQEQVNGGEAQPG [A17N] reads 5.16; that for NIVEYLIQEQPGQEQVLGGEAQPG [A17L], 3.33; that for NIVEYLIQEQPGQEQVGGGEAQPG [A17G], 4.71.
For the variant NIVEYLIQEQPGQEQVDGGEAQPG [A17D], the protein stability index was determined as 4.97.
The result for NIVEYLIQEQPGQEQVHGGEAQPG [A17H] reads 4.38.
Then NIVEYLIQEQPGQEQVFGGEAQPG [A17F], with 3.59; and NIVEYLIQEQPGQEQVKGGEAQPG [A17K], with 4.19; and NIVEYLIQEQPGQEQVCGGEAQPG [A17C], with 3.37.
NIVEYLIQEQPGQEQVIGGEAQPG [A17I]: the protein stability index turned out to be 3.87.
The result for NIVEYLIQEQPGQEQVEGGEAQPG [A17E] reads 4.6.
